Test results published in the supplement of paper PMC11865577.

Columns and labels:
Experiment in all cases: pull-down binding Z-score (relative to library population); higher = stronger binding
[1] = system: G-clamp-N3 (biotin conjugate); conditions: RNA library: Library-1 (pre-miRNA loops + repeats)
Summary of the method: (§1)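 Streptavidin beads bearing 100 pmol of a biotin-conjugated small molecule were incubated for 60 min at 25 °C with 1 μg of heat-folded, Cy5- or Cy3-end-labelled RNA library in phosphate/NaCl/KCl buffer. Hot SDS eluted the RNA that stayed bound after three washes, and this RNA was hybridised for 20 h at 55.5 °C to a DNA barcode microarray. Binding was expressed as a Z-score against the library mean and standard deviation, after subtraction of a beads-only signal and trimmed averaging of barcoded replicate probes.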

[2] = system: TO-3-N3 (biotin conjugate); conditions: RNA library: Library-2
Summary of the method: as §1

[3] = system: TO-3-N3-2 (biotin conjugate); conditions: RNA library: Library-2
Summary of the method: as §1

[4] = system: TO-N3 (biotin conjugate); conditions: RNA library: Library-2
Summary of the method: as §1

[5] = system: TO-N3-2 (biotin conjugate); conditions: RNA library: Library-2
Summary of the method: as §1

| Sequence | pull-down binding Z-score [1] | pull-down binding Z-score [2] | pull-down binding Z-score [3] | pull-down binding Z-score [4] | pull-down binding Z-score [5] |
| --- | --- | --- | --- | --- | --- |
| GGUUUUGCCAUCAUGCCAAAAGCU [hsa-mir-548v] | -0.76 | 0.00688 | -0.0997 | 0.277 | 0.259 |
| GCAAUCAGGACUGGGUCAUUC [hsa-mir-6873] | -0.628 | 0.38 | 0.166 | 0.572 | 0.291 |
| GACUUUUCUAUUUUCCAAAAGC [hsa-mir-423] | -0.657 | -0.475 | -0.142 | -0.568 | -0.573 |
| UGCUUUGUUAGAAACAAAAAGCA [hsa-mir-4679-1] | 0.865 | 0.632 | 0.248 | 0.447 | -0.462 |
| ACAUGCAGUAUUUGG [hsa-mir-1302-8] | 0.976 | -0.326 | -0.047 | -0.242 | -0.0326 |
| CUGACCCGUUGUCAGACCUGGAAAAAGGGCCGGCUGUGGGCAGGGAGG [hsa-mir-4761] | 1.11 | 4.77 | 5.16 | 4.2 | 3.86 |
| CCUUAGCACUAGCAGGAGG [hsa-mir-612] | 0.101 | -0.588 | -0.482 | -0.556 | 0.00744 |
| CUCAUGAUAUGUUUGCCCCAUCAGCGUGUCACGAG [hsa-mir-3616] | 0.251 | -0.104 | -0.139 | -0.0894 | 0.199 |
| AAACGUGCUCAGUGUCUUUAUAACAGGAAAGCCGUAAAC [hsa-mir-1272] | -0.626 | 0.0446 | 0.284 | 0.528 | 0.894 |
| CUUCUGCUUCCUCUUAGCGCAGGAG [hsa-mir-1914] | -1.66 | -0.591 | -0.325 | -0.751 | -0.409 |
| UUCAUGUUCACUGAAAGGUAGAUUUUAAAAACAUGAA [hsa-mir-4790] | -0.0488 | -0.15 | 0.268 | -0.371 | -0.575 |
| AUCAGUUCUCAUUUUACACACUGGC [hsa-mir-24-1] | 0.0425 | -0.563 | -0.0568 | -0.54 | -0.282 |
| GGUUUGCGCCUCAAGAAACC [hsa-mir-1255b-2] | 0.436 | -0.187 | -0.306 | -0.0954 | 0.521 |
| CUUGAUUUAAAUGUCCAUACAAUUAAG [hsa-mir-124-1] | -0.57 | -0.0597 | -0.142 | -0.179 | -0.133 |
| AUACUGGAGCAAUAGAUACAGUU [hsa-mir-3692] | -0.223 | -0.727 | -0.389 | -0.663 | -0.353 |
| GGAGUUGAUGCACAGUUAUCCAGCUCC [hsa-mir-337] | -0.406 | -0.577 | -0.326 | -0.495 | -0.0382 |
| UUUUUUUCGCUUUAUUUGUGACGAAAC [hsa-mir-543] | -0.305 | -0.674 | -0.278 | -0.856 | -0.882 |
| AGGUAGUGAUAUGUGCAUCUACU [hsa-mir-17] | -0.805 | 0.0812 | 0.142 | 0.31 | 0.759 |
| GUGGAGCCAAAAUUAGAAGGGCCAAAAUUCUACCUGGCCCACUACCACAG [hsa-mir-3978] | -0.932 | -0.3 | 0.318 | -0.00817 | 0.705 |

| Sequence | pull-down binding Z-score [1] | pull-down binding Z-score [2] | pull-down binding Z-score [3] | pull-down binding Z-score [4] | pull-down binding Z-score [5] |
| --- | --- | --- | --- | --- | --- |
| GUGAUUACAUUAAAACUUAAAAUUUCAC [hsa-mir-4719] | -1.01 | -0.0289 | -0.244 | -0.105 | -0.663 |
| GAGACUGCCCAAAGACUCUUCAGUAUC [hsa-mir-2681] | -0.411 | 0.782 | 0.272 | 0.738 | 0.223 |
| UCCCAUUUCCACAUGGAGAGUGGAGCCCAGA [hsa-mir-3123] | 1.02 | 0.384 | 0.0927 | 0.639 | 0.671 |
| UUUUUCUUUACUUUUAAUGGCAAA [hsa-mir-548u] | 0.72 | -1.03 | -0.338 | -1.35 | -1.2 |
| AUGAUAUAUUGUGAGAGCCAUGUCAU [hsa-mir-6718] | 0.0796 | 0.0536 | -0.0702 | -0.0603 | -0.393 |
| AUUGUUGUGGGGUAGGGAUAUUAGGCCCCAAUUAGAAGAUAACUAU [hsa-mir-98] | 1.37 | 1.03 | 1.1 | 1.07 | 0.971 |
| UUGGGAUCCACCUUUCUCUCGA [hsa-mir-196b] | -0.507 | 0.578 | 0.21 | 0.471 | -0.031 |
| UAGUGGAAAGAGCACUG [hsa-mir-378b] | 1.15 | -0.39 | -0.158 | -0.347 | -0.274 |
| UGGAGUCAGUAUUGGUCUGGCCA [hsa-mir-4255] | 0.114 | -0.417 | 0.104 | -0.319 | 0.502 |
| UGAGUACAUUAUUUAUGAUUAAUCA [hsa-mir-376a-1] | -1.62 | -0.874 | -0.0505 | -0.978 | -0.847 |
| GGAGGCCCCGCCCUGCUGCCGACCCUGUGGAGCGGAGGGUGAAGCCUCC [hsa-mir-3180-5] | 0.844 | 0.326 | 0.0715 | 1.1 | 1.98 |
| UUUUGCCAUUACUUUUACAGGCAAAA [hsa-mir-548aa-1] | -0.445 | -0.497 | -0.412 | -0.991 | -1.28 |
| AAAUCCCGUUAAUAAGUAAGAGGAUUU [hsa-mir-2113] | 0.525 | 0.503 | 0.143 | 0.817 | 0.758 |
| GCAUAUAGAGUAUAUGC [hsa-mir-4657] | 0.625 | -0.323 | 0.0599 | -0.435 | -0.526 |
| GUGUACAGGGAGGAGACUGUACGUGAGAGAUAGUCAGAUCCGCAUGUUAGAGCAGAGUCUCCUUCGUGUACAG [hsa-mir-4441] | 0.459 | -0.779 | -0.183 | -0.184 | 0.631 |
| UGCAGUGCUGGGCAUGGGCUUCUCG [hsa-mir-3677] | 0.689 | 1.07 | 0.328 | 1.49 | 1.54 |
| GUUUGAUAGUUUAGACACAAAC [hsa-mir-3591] | 0.0903 | 0.44 | 0.11 | 0.263 | -0.389 |
| CGAGAAGCGCCUGCGUCUCCCAUUUUCG [hsa-mir-3944] | -1 | 0.199 | 0.16 | 0.763 | 1.37 |
